Results: patent US20240116985A1 (published 2024)
Starred links: 1 amine or outer side, 2 acyl side, 3 side chain; linkers in the order of their positions; H or OH if unused. Positions of bridges follow the written chain, without caps; N, C: chain ends. Non-standard residues stand in square brackets, D forms with d. Primed or numbered codes have the meaning given here. B5(17) = 2,2-bis(4-pentenyl)glycine = 2-amino-2-(pent-4-en-1-yl)hept-6-enoic acid, stitching residue, C=CCCCC(CCCC=C)(N[*:1])C(=O)[*:2]; B5(4) = 2,2-bis(4-pentenyl)glycine = 2-amino-2-(pent-4-en-1-yl)hept-6-enoic acid (stitching residue), C=CCCCC(CCCC=C)(N[*:1])C(=O)[*:2]; B5(5) = 2,2-bis(4-pentenyl)glycine, 2-amino-2-(pent-4-en-1-yl)hept-6-enoic acid (stitching residue), C=CCCCC(CCCC=C)(N[*:1])C(=O)[*:2]; PyrS2 = (S)-3-amino-1-((pent-4-en-1-yloxy)carbonyl)pyrrolidine-3-carboxylic acid, C=CCCCOC(=O)N1CC[C@@](N[*:1])(C(=O)[*:2])C1; B5(19) = 2-amino-2-(pent-4-en-1-yl)hept-6-enoic acid (bis(4-pentenyl)glycine), C=CCCCC(CCCC=C)(N[*:1])C(=O)[*:2]; 7F1NapA = 3-(7-fluoronaphthalen-1-yl)-L-alanine, O=C([C@H](Cc1cccc2ccc(F)cc12)N[*:1])[*:2]; Phe(3-COOH) = N[C@@H](Cc1cccc(C(=O)O)c1)C(=O)O; Phe(2-CF3) = N[C@@H](Cc1ccccc1C(F)(F)F)C(=O)O; Phe(3,4-Me2) = Cc1ccc(C[C@H](N)C(=O)O)cc1C; Phe(3-F) = N[C@@H](Cc1cccc(F)c1)C(=O)O; Bta = N[C@@H](Cc1csc2ccccc12)C(=O)O; αAllylPro = C=CC[C@@]1(C(=O)O)CCCN1; tBuAla = CC(C)(C)C[C@H](N)C(=O)O; S8 = C=CCCCCCC[C@](C)(N)C(=O)O

T1: full-length beta-Catenin (Uniprot ID P35222) (Homo sapiens (Human), UniProt P35222 1-781)
T1 construct: also called bCat; B-Catenin
T1 sequence: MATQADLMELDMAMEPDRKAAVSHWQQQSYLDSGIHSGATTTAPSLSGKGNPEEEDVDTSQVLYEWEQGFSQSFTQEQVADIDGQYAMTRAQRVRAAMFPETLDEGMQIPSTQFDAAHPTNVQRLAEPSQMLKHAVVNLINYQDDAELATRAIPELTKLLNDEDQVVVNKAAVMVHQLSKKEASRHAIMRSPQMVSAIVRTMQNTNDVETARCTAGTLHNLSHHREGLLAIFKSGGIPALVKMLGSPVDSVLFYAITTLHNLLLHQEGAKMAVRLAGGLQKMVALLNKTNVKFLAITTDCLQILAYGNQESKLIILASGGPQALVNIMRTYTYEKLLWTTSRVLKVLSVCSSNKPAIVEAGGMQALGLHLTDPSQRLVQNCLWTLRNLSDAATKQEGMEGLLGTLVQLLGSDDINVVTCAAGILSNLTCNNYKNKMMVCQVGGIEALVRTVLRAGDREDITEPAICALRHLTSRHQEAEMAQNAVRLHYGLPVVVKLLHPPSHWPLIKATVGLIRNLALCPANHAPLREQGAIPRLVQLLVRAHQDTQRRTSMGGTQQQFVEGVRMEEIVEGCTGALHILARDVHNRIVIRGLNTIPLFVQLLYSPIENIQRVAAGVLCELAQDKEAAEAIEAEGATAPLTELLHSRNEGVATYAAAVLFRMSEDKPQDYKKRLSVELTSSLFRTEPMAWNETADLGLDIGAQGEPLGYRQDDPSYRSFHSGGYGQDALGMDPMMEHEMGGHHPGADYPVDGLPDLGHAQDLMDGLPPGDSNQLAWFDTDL

T2: B-cat-Halo (UniProt P35222 1-781)
T2 sequence (looked up): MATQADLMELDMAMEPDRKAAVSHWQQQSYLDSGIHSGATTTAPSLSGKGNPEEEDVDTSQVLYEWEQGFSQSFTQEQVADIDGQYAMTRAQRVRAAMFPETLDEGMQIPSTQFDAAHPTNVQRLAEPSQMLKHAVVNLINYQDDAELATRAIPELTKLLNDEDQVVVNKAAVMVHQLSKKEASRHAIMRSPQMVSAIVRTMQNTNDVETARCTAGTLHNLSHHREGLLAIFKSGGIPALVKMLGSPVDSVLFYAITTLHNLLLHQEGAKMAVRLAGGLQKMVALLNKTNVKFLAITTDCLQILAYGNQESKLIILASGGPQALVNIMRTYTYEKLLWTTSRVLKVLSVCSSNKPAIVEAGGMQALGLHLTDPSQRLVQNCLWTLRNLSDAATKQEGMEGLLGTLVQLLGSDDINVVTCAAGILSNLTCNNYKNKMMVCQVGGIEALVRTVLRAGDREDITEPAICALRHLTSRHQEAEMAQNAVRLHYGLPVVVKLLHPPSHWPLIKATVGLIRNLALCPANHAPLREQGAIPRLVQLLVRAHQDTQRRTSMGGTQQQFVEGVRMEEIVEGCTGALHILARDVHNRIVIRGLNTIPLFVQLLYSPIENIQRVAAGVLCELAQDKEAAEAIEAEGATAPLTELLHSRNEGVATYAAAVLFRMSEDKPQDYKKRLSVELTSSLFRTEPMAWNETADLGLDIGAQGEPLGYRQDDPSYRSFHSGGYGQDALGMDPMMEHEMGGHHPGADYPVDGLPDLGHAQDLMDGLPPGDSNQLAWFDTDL

T3: full-length beta-Catenin (Uniprot ID P35222) (Homo sapiens (Human), UniProt P35222 1-781)
T3 construct: also called bCat; B-Catenin
T3 sequence: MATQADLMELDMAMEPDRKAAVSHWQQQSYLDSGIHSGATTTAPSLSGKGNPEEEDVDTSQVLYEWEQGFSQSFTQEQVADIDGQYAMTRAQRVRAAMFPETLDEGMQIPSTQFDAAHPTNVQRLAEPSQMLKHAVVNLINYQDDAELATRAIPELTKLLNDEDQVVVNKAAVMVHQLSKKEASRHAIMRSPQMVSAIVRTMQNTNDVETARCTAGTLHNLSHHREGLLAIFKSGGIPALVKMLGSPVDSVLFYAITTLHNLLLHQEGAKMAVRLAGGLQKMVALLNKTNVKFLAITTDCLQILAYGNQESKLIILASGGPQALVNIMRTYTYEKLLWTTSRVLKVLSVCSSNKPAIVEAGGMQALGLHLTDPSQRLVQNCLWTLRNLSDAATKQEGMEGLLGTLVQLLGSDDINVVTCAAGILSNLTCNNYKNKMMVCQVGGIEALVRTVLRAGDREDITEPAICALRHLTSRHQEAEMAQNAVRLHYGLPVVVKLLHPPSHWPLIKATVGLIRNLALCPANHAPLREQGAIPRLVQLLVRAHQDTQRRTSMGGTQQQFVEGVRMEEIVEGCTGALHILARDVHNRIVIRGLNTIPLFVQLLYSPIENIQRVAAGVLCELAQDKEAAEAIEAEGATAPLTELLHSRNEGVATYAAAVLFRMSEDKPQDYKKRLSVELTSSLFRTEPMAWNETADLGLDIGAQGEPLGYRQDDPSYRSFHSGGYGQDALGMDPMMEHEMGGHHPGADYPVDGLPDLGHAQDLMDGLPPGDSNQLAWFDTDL


Biological target: T1, full-length beta-Catenin (Uniprot ID …)
Assay: fluorescence polarization competition; displacement of 5FAM-TCF4(10-53) from full-length beta-catenin
Description: (§1) The plate was incubated protected from light for 60 minutes at 20° C. prior to read. Reads were performed on a CLARIOstar plate reader (BMG Labtech) in duplicate, and data were fitted to a 1:1 binding model with hill slope using an in-house script. All provided concentrations are final concentrations.

| Binder | EC50 [nM] |
| --- | --- |
| Ac-[αAllylPro]DL[B5(5)]DDAAFN[S8]F[Bta]Q-NH2 (staple 1-4, 4-11) [I-562] | 51 |
| XDIXDDAAFNXFXQ (not fully specified; Ac-PL3-Asp-Ile-B5-Asp-Asp-Ala-Ala-Phe-Asn-S8-2OMeF-BztA-Gln-NH2; N-terminal acetyl, C-terminal amide; non-natural: PL3(1), B5(4), S8(11), 2OMeF(12), BztA(13); staples PL3(1)-B5(4) and B5(4)-S8(11)) [I-550] | 30 |
| XDLXDDAAFQXFXQ (not fully specified; Ac-PL3-Asp-Leu-B5-Asp-Asp-Ala-Ala-Phe-Gln-S8-Phe-BztA-Gln-NH2; N-terminal acetyl, C-terminal amide; non-natural: PL3(1), B5(4), S8(11), BztA(13); staples PL3(1)-B5(4) and B5(4)-S8(11)) [I-558] | 56 |
| XDIXDDAAFNXFXH (not fully specified; Ac-PL3-Asp-Ile-B5-Asp-Asp-Ala-Ala-Phe-Asn-S8-2OMeF-BztA-His-NH2; N-terminal acetyl, C-terminal amide; non-natural: PL3(1), B5(4), S8(11), 2OMeF(12), BztA(13); staples PL3(1)-B5(4) and B5(4)-S8(11)) [I-554] | 27.5 |
| XDIXDDAAFNXFXQ (not fully specified; Ac-PL3-Asp-Ile-B5-Asp-Asp-Ala-Ala-Phe-Asn-S8-2OMeF-BztA-Gln-NH2; N-terminal acetyl, C-terminal amide; non-natural: PL3(1), B5(4), S8(11), 2OMeF(12), BztA(13); staples PL3(1)-B5(4) and B5(4)-S8(11)) [I-549] | 71 |
| XDIXDDAAFNXFXH (not fully specified; Ac-PL3-Asp-Ile-B5-Asp-Asp-Ala-Ala-Phe-Asn-S8-2OMeF-BztA-His-NH2; N-terminal acetyl, C-terminal amide; non-natural: PL3(1), B5(4), S8(11), 2OMeF(12), BztA(13); staples PL3(1)-B5(4) and B5(4)-S8(11)) [I-553] | 61 |
| Ac-[αAllylPro]DL[B5(4)]DEAAFN[S8]F[Bta]H-NH2 (staple 1-4, 4-11, Stapled (stitched) peptide composition) [I-543] | 32 |
| Ac-[αAllylPro]DI[B5(17)]DEAAFN[S8]F[Bta]Q-NH2 (staple 1-4, 4-11, Stapled (stitched) peptide composition) [I-557] | 35 |

Now from value to binder:

| EC50 [nM] | Binder |
| --- | --- |
| 43 | XDLXDDAAFQXFXQ (not fully specified; Ac-PL3-Asp-Leu-B5-Asp-Asp-Ala-Ala-Phe-Gln-S8-Phe-BztA-Gln-NH2; N-terminal acetyl, C-terminal amide; non-natural: PL3(1), B5(4), S8(11), BztA(13); staples PL3(1)-B5(4) and B5(4)-S8(11)) [I-559] |
| 13 | XDLXDDAAFNXFXH (not fully specified; Ac-PL3-Asp-Leu-B5-Asp-Asp-Ala-Ala-Phe-Asn-S8-Phe-BztA-His-NH2; N-terminal acetyl, C-terminal amide; non-natural: PL3(1), B5(4), S8(11), BztA(13); staples PL3(1)-B5(4) and B5(4)-S8(11)) [I-565] |
| 81 | Ac-[αAllylPro]DL[B5(5)]DDAAFQ[S8]F[Bta]H-NH2 (staple 1-4, 4-11) [I-560] |
| 76 | XDVXDDAAFNXFXQ (not fully specified; Ac-PL3-Asp-Val-B5-Asp-Asp-Ala-Ala-Phe-Asn-S8-Phe-BztA-Gln-NH2; N-terminal acetyl, C-terminal amide; non-natural: PL3(1), B5(4), S8(11), BztA(13); staples PL3(1)-B5(4) and B5(4)-S8(11)) [I-566] |
| 36 | Ac-[αAllylPro]DL[B5(5)]DDAAFN[S8]F[Bta]H-NH2 (staple 1-4, 4-11) [I-564] |
| 34 | XDLXDDAAFQXFXH (not fully specified; Ac-PL3-Asp-Leu-B5-Asp-Asp-Ala-Ala-Phe-Gln-S8-Phe-BztA-His-NH2; N-terminal acetyl, C-terminal amide; non-natural: PL3(1), B5(4), S8(11), BztA(13); staples PL3(1)-B5(4) and B5(4)-S8(11)) [I-561] |

Biological target: T2, B-cat-Halo
Assay: cell-based or functional assay

| NanoBRET Abs IC50 [nM] | Binder |
| --- | --- |
| 5700 | Ac-[αAllylPro]D[tBuAla][B5(4)]D[Phe(3-COOH)]AAFL[PyrS2][Phe(2-CF3)][Phe(3,4-Me2)]S-NH2 (staple 1-4, 4-11) [I-2293] |

Biological target: T3, full-length beta-Catenin (Uniprot ID …)
Assay: fluorescence polarization competition; 10 nM full-length beta-catenin, competitor 10 nM 5FAM-TCF4(10-53)
Description: as §1

| EC50 [nM] | Binder |
| --- | --- |
| 5000 | Ac-[αAllylPro]DA[B5(19)]DDAAFV[S8]F[7F1NapA]Q-NH2 (staple 1-4, 4-11, Stapled peptide composition (olefin metathesis)) [I-368] |
| 2090 | Ac-[αAllylPro]DA[B5(4)]DEAAFA[S8][Phe(3-F)][Bta]Q-NH2 (staple 1-4, 4-11, Stapled peptide composition (olefin metathesis)) [I-372] |
| 2060 | XDAXDNAAFVXFXQ (not fully specified; Ac-PL3-Asp-Ala-B5-Asp-Asn-Ala-Ala-Phe-Val-S8-3FF-BztA-Gln-NH2: N-terminal acetyl, C-terminal amide; non-natural PL3(1), B5(4), S8(11), 3FF(12), BztA(13); staples PL3-B5 and B5-S8, Stapled peptide) [I-382] |
